From US20120135923A1 (IPSEN PHARMA S A S, published 2012)
Bridge positions count the residues as written; N and C are the ends. Square brackets hold non-standard residues; d marks the D form. Ends that are not written are not given here. 2Nal = N[C@@H](Cc1ccc2ccccc2c1)C(=O)O; Bta = N[C@@H](Cc1csc2ccccc12)C(=O)O; Cha = N[C@@H](CC1CCCCC1)C(=O)O; Pen = CC(C)(S)[C@H](N)C(=O)O; Nle = CCCC[C@H](N)C(=O)O; Ahx = NCCCCCC(=O)O; Ava = NCCCCC(=O)O; GABA = NCCCC(=O)O

How the values were obtained:
[1] = target: T1, hMC1-R (human, UniProt Q01726 1-317); assay: ratio Ki hMC1-R / Ki hMC4-R, same assay
T1 construct: whole, on cells; Assayed as membranes of CHO-K1 cells expressing the receptor; also called hMC-R receptor subtype 1; melanocyte-specific receptor (MC1-R)
T1 sequence (Q01726 whole entry): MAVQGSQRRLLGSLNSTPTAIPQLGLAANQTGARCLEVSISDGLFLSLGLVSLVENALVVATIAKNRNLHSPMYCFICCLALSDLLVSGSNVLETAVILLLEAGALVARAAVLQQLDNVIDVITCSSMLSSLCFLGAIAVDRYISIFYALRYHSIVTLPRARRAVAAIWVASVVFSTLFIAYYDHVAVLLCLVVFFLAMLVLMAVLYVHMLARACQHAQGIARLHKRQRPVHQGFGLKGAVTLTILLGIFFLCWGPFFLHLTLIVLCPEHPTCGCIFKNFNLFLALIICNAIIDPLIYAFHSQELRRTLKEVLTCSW
Description: Cellular membranes used for the in vitro receptor binding assays were obtained from transgenic CHO-K1 cells stably expressing hMC-R receptor subtypes 1, 3, 4 or 5. […] The pellets were resuspended in the same buffer and centrifuged at 50,000 g for 10 minutes at approximately 4° C. The washed pellets containing the cellular membranes were stored at approximately −80° C.
Competitive inhibition of [¹²⁵I](Tyr²)-(Nle⁴-D-Phe⁷)α-MSH ([¹²⁵I]-NDP-α-MSH, Amersham Biosciences®) binding was carried out in polypropylene 96 well plates. Cell membranes (1-10 μg protein/well) prepared as described above were incubated in 50 mM Tris-HCl at pH 7.4 containing 0.2% bovine serum albumin (BSA), 5 mM MgCl₂, 1 mM CaCl₂ and 0.1 mg/mL bacitracin, with increasing concentrations of the test compound and 0.1-0.3 nM […] for approximately 90-120 minutes at approximately 37° C. Bound [¹²⁵I]-NDP-α-MSH ligand was separated from free [¹²⁵I]-NDP-α-MSH by filtration through GF/C glass fiber filter plates (Unifilter®; Packard) presoaked with 0.1% (w/v) polyethylenimine (PEI), using a Packard Filtermate® harvester. Filters were washed three times with 50 mM Tris-HCl at pH 7.4 at a temperature of approximately 0-4° C. and then assayed for radioactivity using a Packard Topcount® scintillation counter. Binding data were analyzed by computer-assisted non-linear regression analysis (XL fit; IDBS).

[2] = target: T1, hMC1-R; assay: competition with [125I]-NDP-α-MSH, CHO-K1 membranes
[3] = target: T2, hMC3-R (human, UniProt P41968 1-323); assay: as above
T2 construct: whole, on cells; Assayed as membranes of CHO-K1 cells expressing the receptor; also called hMC-R receptor subtype 3; melacortin-3 (MC3-R)
T2 sequence (P41968 whole entry): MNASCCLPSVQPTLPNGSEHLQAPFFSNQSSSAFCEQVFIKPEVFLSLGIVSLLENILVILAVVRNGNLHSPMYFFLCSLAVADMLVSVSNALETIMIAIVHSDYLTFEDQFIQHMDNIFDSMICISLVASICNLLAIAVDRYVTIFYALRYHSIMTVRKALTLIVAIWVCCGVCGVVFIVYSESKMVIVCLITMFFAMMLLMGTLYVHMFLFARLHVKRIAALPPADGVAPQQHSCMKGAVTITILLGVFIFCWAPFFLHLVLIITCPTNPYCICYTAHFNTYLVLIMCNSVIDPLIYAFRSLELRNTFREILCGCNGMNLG

[4] = target: T3, hMC4-R (human, UniProt P32245 1-332); assay: as above
T3 construct: whole, on cells; Assayed as membranes of CHO-K1 cells expressing the receptor; also called hMC-R receptor subtype 4; melanocortin-4 (MC4-R)
T3 sequence (P32245 whole entry): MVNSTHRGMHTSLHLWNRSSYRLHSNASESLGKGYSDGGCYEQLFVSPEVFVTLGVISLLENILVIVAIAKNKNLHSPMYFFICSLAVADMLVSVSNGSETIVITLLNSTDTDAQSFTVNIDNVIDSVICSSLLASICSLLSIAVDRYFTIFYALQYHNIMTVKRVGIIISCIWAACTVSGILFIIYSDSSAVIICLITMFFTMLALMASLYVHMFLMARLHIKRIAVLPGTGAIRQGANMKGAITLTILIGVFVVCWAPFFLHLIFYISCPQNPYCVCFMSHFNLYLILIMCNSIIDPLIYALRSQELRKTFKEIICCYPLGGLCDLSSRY

[5] = target: T4, hMC5-R (human, UniProt P33032 1-325); assay: as above
T4 construct: whole, on cells; Assayed as membranes of CHO-K1 cells expressing the receptor; also called hMC-R receptor subtype 5; melanocortin-5 receptor (MC5-R)
T4 sequence (P33032 whole entry): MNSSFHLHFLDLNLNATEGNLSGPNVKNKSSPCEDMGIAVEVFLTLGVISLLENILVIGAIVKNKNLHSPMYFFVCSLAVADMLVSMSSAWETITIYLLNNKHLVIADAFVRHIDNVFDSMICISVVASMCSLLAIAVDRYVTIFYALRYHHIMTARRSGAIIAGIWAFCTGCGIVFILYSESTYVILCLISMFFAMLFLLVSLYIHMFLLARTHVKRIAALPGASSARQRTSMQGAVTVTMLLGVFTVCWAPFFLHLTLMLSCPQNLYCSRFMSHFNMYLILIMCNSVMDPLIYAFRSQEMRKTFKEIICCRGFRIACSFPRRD

| Binder | Ki hMC1-R/MC4-R [1] | Ki [2] | Ki [3] | Ki [4] | Ki [5] |
| --- | --- | --- | --- | --- | --- |
| Ac-C[dA]H[dF]R[2Nal]AC-NH2 (disulfide 1-8; SMILES CC(=O)N[C@H]1CSSC[C@@H](C(N)=O)NC(=O)[C@H](C)NC(=O)[C@H](Cc2ccc3ccccc3c2)NC(=O)[C@H](CCCNC(=N)N)NC(=O)[C@@H](Cc2ccccc2)NC(=O)[C@H](Cc2c[nH]cn2)NC(=O)[C@@H](C)NC1=O) [Ac-c(Cys-D-Ala-His-D-Phe-Arg-2-Nal-Ala-Cys)-NH2] | 3.24 | 132 nM | 4560 nM | 40.7 nM | 8810 nM |
| Ac-[dR]CH[dF]RW[GABA][Pen]-NH2 (disulfide 2-8; SMILES CC(=O)N[C@H](CCCNC(=N)N)C(=O)N[C@H]1CSSC(C)(C)[C@@H](C(N)=O)NC(=O)CCCNC(=O)[C@H](Cc2c[nH]c3ccccc23)NC(=O)[C@H](CCCNC(=N)N)NC(=O)[C@@H](Cc2ccccc2)NC(=O)[C@H](Cc2c[nH]cn2)NC1=O) [Ac-D-Arg-c(Cys-His-D-Phe-Arg-Trp-Gaba-Pen)-NH2] | 0.36 | 3.93 nM | 172 nM | 11 nM | 538 nM |
| [Nle]CH[dF]RW[Ava]C-NH2 (disulfide 2-8; N-terminus assumed; SMILES CCCC[C@H](N)C(=O)N[C@H]1CSSC[C@@H](C(N)=O)NC(=O)CCCCNC(=O)[C@H](Cc2c[nH]c3ccccc23)NC(=O)[C@H](CCCNC(=N)N)NC(=O)[C@@H](Cc2ccccc2)NC(=O)[C@H](Cc2c[nH]cn2)NC1=O) [Nle-c(Cys-His-D-Phe-Arg-Trp-Apn-Cys)-NH2] | 0.1 | 0.07 nM | 4.1 nM | 0.85 nM | 8.8 nM |
| Ac-[Nle]D[dA]H[dF]RWK-NH2 (lactam 2-8; SMILES CCCC[C@H](NC(C)=O)C(=O)N[C@H]1CC(=O)NCCCC[C@@H](C(N)=O)NC(=O)[C@H](Cc2c[nH]c3ccccc23)NC(=O)[C@H](CCCNC(=N)N)NC(=O)[C@@H](Cc2ccccc2)NC(=O)[C@H](Cc2c[nH]cn2)NC(=O)[C@@H](C)NC1=O) [Ac-Nle-c(Asp-D-Ala-His-D-Phe-Arg-Trp-Lys)-NH2] | 0.26 | 0.659 nM | 98.9 nM | 2.55 nM | 4.19 nM |
| Ac-[Nle]CH[dF]RW[GABA][Pen]-NH2 (disulfide 2-8) [Ac-Nle-c(Cys-His-D-Phe-Arg-Trp-Gaba-Pen)-NH2] | 0.3 | 0.12 nM | 10 nM | 0.43 nM | 0.42 nM |
| Ac-[Nle][Pen]H[dF]RW[GABA][Pen]-NH2 (disulfide 2-8) [Ac-Nle-c(Pen-His-D-Phe-Arg-Trp-Gaba-Pen)-NH2] | 0.21 | 0.744 nM | 178 nM | 3.51 nM | 2.69 nM |
| Ac-[Cha]CH[dF]RW[GABA]C-NH2 (disulfide 2-8) [Ac-Cha-c(Cys-His-D-Phe-Arg-Trp-Gaba-Cys)-NH2] | 0.12 | 0.107 nM | 9.11 nM | 0.884 nM | 0.354 nM |
| Ac-[Nle]CH[dF]RW[Ahx]C-NH2 (disulfide 2-8) [Ac-Nle-c(Cys-His-D-Phe-Arg-Trp-Ahx-Cys)-NH2] | 0.11 | 0.0132 nM | 16.1 nM | 1.23 nM | 0.359 nM |
| [Nle]CH[dF]RW[GABA]C-NH2 (disulfide 2-8) [Nle-c(Cys-His-D-Phe-Arg-Trp-Gaba-Cys)-NH2] | 0.1 | 0.05 nM | 1.3 nM | 0.47 nM | 0.2 nM |
| Ac-[Nle]CH[dF]RW[Ava]C-NH2 (disulfide 2-8; SMILES CCCC[C@H](NC(C)=O)C(=O)N[C@H]1CSSC[C@@H](C(N)=O)NC(=O)CCCCNC(=O)[C@H](Cc2c[nH]c3ccccc23)NC(=O)[C@H](CCCNC(=N)N)NC(=O)[C@@H](Cc2ccccc2)NC(=O)[C@H](Cc2c[nH]cn2)NC1=O) [Ac-Nle-c(Cys-His-D-Phe-Arg-Trp-Apn-Cys)-NH2] | 0.11 | 0.0951 nM | 9.33 nM | 0.894 nM | 13.4 nM |
| Ac-[2Nal]CH[dF]RW[GABA]C-NH2 (disulfide 2-8) [Ac-2-Nal-c(Cys-His-D-Phe-Arg-Trp-Gaba-Cys)-NH2] | 0.19 | 0.56 nM | 39.2 nM | 2.94 nM | 2.73 nM |
| Ac-[Nle]D[dA]H[dF]R[Bta]K-NH2 (lactam 2-8; SMILES CCCC[C@H](NC(C)=O)C(=O)N[C@H]1CC(=O)NCCCC[C@@H](C(N)=O)NC(=O)[C@H](Cc2csc3ccccc23)NC(=O)[C@H](CCCNC(=N)N)NC(=O)[C@@H](Cc2ccccc2)NC(=O)[C@H](Cc2c[nH]cn2)NC(=O)[C@@H](C)NC1=O) [Ac-Nle-c(Asp-D-Ala-His-D-Phe-Arg-Bal-Lys)-NH2] | 0.08 | 4.12 nM | 445 nM | 50.6 nM | 4300 nM |
| Ac-RCH[dF]RW[GABA][Pen]-NH2 (disulfide 2-8; SMILES CC(=O)N[C@@H](CCCNC(=N)N)C(=O)N[C@H]1CSSC(C)(C)[C@@H](C(N)=O)NC(=O)CCCNC(=O)[C@H](Cc2c[nH]c3ccccc23)NC(=O)[C@H](CCCNC(=N)N)NC(=O)[C@@H](Cc2ccccc2)NC(=O)[C@H](Cc2c[nH]cn2)NC1=O) [Ac-Arg-c(Cys-His-D-Phe-Arg-Trp-Gaba-Pen)-NH2] | 0.4 | 1.81 nM | 20.5 nM | 4.57 nM | 502 nM |
| Ac-[Nle]C[dL]H[dF]RWC-NH2 (disulfide 2-8; SMILES CCCC[C@H](NC(C)=O)C(=O)N[C@H]1CSSC[C@@H](C(N)=O)NC(=O)[C@H](Cc2c[nH]c3ccccc23)NC(=O)[C@H](CCCNC(=N)N)NC(=O)[C@@H](Cc2ccccc2)NC(=O)[C@H](Cc2c[nH]cn2)NC(=O)[C@@H](CC(C)C)NC1=O) [Ac-Nle-c(Cys-D-Leu-His-D-Phe-Arg-Trp-Cys)-NH2] | 0.39 | 1.6 nM | 6.82 nM | 4.13 nM | 5.57 nM |
| Ac-CEH[dF]RWAC-NH2 (disulfide 1-8; SMILES CC(=O)N[C@H]1CSSC[C@@H](C(N)=O)NC(=O)[C@H](C)NC(=O)[C@H](Cc2c[nH]c3ccccc23)NC(=O)[C@H](CCCNC(=N)N)NC(=O)[C@@H](Cc2ccccc2)NC(=O)[C@H](Cc2c[nH]cn2)NC(=O)[C@H](CCC(=O)O)NC1=O) [Ac-c(Cys-Glu-His-D-Phe-Arg-Trp-Ala-Cys)-NH2] | 2.33 | 111 nM | 1710 nM | 47.7 nM | 694 nM |
| Ac-[Nle]CHFR[dW][GABA]C-NH2 (disulfide 2-8, Phe 4 is the L form here) [Ac-Nle-c(Cys-His-Phe-Arg-D-Trp-Gaba-Cys)-NH2] | 0.04 | 5.2 nM | 150 nM | 138 nM | 20.3 nM |
| Ac-ICH[dF]RW[GABA]C-NH2 (disulfide 2-8; SMILES CC[C@H](C)[C@H](NC(C)=O)C(=O)N[C@H]1CSSC[C@@H](C(N)=O)NC(=O)CCCNC(=O)[C@H](Cc2c[nH]c3ccccc23)NC(=O)[C@H](CCCNC(=N)N)NC(=O)[C@@H](Cc2ccccc2)NC(=O)[C@H](Cc2c[nH]cn2)NC1=O) [Ac-Ile-c(Cys-His-D-Phe-Arg-Trp-Gaba-Cys)-NH2] | 0.14 | 0.148 nM | 13.9 nM | 1.06 nM | 0.423 nM |
| Ac-LCH[dF]RW[GABA]C-NH2 (disulfide 2-8) [Ac-Leu-c(Cys-His-D-Phe-Arg-Trp-Gaba-Cys)-NH2] | 0.22 | 0.216 nM | 17.4 nM | 0.995 nM | 0.486 nM |
| Ac-VCH[dF]RW[GABA]C-NH2 (disulfide 2-8; SMILES CC(=O)N[C@H](C(=O)N[C@H]1CSSC[C@@H](C(N)=O)NC(=O)CCCNC(=O)[C@H](Cc2c[nH]c3ccccc23)NC(=O)[C@H](CCCNC(=N)N)NC(=O)[C@@H](Cc2ccccc2)NC(=O)[C@H](Cc2c[nH]cn2)NC1=O)C(C)C) [Ac-Val-c(Cys-His-D-Phe-Arg-Trp-Gaba-Cys)-NH2] | 0.13 | 0.256 nM | 29.9 nM | 1.98 nM | 0.864 nM |
